Experimental data reported in patent US10080774B2, “Oncolytic adenovirus armed with therapeutic genes” (priority 2002, dated 2018).
Where no end group is shown, it is not given here. FAM = 5(6)-carboxyfluorescein label; Ahx = NCCCCCC(=O)O

Tests used:
[1] = system: P-MAPK; assay: P-MAPK inhibition; type: cell-based, human; conditions: U-87 MG cells
Source text: Although the correlation between MAPK activity and Ad-E1A-COX ability to replicate has been shown (Ahmed et al., 2003), the inventors have designed studies to assess the ability of retargeted constructs to replicate in glioma cells with high or low MAPK activity. To characterize the effects of the insertion of the 3′ UTR on E1A expression, inhibitors of kinases signaling, PD98059 (p42/p44 MAPK inhibitor), and for specificity testing: SB203580 (p38 MAPK inhibitor) and LY294002 (PI3K inhibitor) will be used. The inventors will use an isogenic U-87 MG system, containing a stably integrated, IPTG-inducible activated Ha-rasVal12 cDNA (Sheng et al., 2000). This model system is based in cells that only differ in the expression of an activated variant of the Hras oncogene, Ha-rasVal12 (Sheng et al., 2000). The will assess whether PTGS2 3′ UTR-mediated Ad-E1A-COX-Tie2 depends on the P-MAPK pathway. […] The replication capability of Ad-E1A-COX-Tie2 in U87-MG cells untreated and treated with PD98059 (and the control inhibitors) will be assessed. The inventors contemplate that inhibition of P-MAPK activity by PD98059 will greatly reduce the ability Ad-E1A-COX-Tie2 to replicate even with high expression of Ha-rasVal12 induced by IPTG in the isogenic U-87 MG. […]

[2] = target: T1, Tie2 (Homo sapiens, UniProt Q02763); assay: Binding of T4 peptide to Tie2; design: expressed in transfected cells; host or cells: U-251 MG stably transfected with Tie-2 cDNA (parental U-251 MG is Tie2-negative); also A172 cells with endogenous Tie2; conditions: U-251 MG isogenic system and A172
T1 sequence (Q02763 23-1124): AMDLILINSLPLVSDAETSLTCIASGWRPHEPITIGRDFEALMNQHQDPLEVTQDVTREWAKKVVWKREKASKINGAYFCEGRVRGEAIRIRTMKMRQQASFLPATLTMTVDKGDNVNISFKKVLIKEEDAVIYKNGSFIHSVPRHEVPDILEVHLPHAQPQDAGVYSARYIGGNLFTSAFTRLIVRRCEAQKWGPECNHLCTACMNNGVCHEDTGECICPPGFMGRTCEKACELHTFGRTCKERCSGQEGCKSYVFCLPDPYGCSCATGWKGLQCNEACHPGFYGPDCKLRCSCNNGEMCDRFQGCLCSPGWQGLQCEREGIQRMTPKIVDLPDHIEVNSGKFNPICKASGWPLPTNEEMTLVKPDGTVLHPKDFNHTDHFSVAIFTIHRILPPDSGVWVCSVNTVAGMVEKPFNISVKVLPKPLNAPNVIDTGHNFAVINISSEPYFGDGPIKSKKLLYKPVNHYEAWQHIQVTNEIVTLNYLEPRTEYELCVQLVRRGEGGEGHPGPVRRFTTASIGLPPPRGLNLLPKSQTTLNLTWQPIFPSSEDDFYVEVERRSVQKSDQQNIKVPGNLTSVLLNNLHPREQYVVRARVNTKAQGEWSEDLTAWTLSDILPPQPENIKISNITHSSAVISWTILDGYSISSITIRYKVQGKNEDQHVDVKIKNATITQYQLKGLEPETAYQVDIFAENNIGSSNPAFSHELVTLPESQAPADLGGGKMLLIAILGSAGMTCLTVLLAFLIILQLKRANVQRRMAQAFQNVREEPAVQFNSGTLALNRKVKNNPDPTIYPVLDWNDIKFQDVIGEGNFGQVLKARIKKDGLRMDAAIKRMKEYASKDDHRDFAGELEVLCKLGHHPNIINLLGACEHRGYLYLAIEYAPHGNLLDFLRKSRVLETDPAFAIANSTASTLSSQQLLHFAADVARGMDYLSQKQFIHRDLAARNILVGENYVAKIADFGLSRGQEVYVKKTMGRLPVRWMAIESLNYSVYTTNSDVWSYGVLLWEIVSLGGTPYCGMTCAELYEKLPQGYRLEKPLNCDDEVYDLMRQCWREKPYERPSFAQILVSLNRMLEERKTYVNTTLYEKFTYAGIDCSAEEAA
Source text: Testing the binding of the proposed Tie2-ligand, T4, the inventors synthesized the peptide linked to FAM signal that was suitable for flow cytometric detection. Peptide was synthesized by automatic solid phase chemistry using Fmoc strategy. The N-terminal aminohexanoic acid was labeled by coupling 5(6)-carboxyfluorescein. Peptides were purified to >98% purity by reverse phase HPLC.

[3] = target: T1, Tie2; design: expressed in transfected cells; host or cells: U-251 MG stably transfected with Tie-2 cDNA (parental U-251 MG is Tie2-negative); also A172 cells with endogenous Tie2; conditions: Tournaire et al. (2004); cited from earlier work
[4] = system: U-87 MG cells; assay: Chemotactic migration assay (Transwell); type: cell-based, human; conditions: 24 h
Procedure: Witzenbichler et al. (1998) have reported the chemotactic properties of Ang1 for Tie2-endothelial cells. A chemotaxis assay was performed in the presence or absence of Ang1. Incubation with various concentrations of Ang1 enhanced chemotactic migration of U-87 MG cells. Migration assay was performed as described previously (Gomez-Manzano, 2003). Briefly, the lower surface of the filter was coated with gelatin. 600 μl of DMEM/F-12 (1:1) containing rAng1 and 0.1% BSA was added into lower compartment of the Transwell chamber, and 100 μl of cell suspension was added in the upper chamber. After 24 h of incubation, the filters were fixed, stained with H/E, and the cells on the lower surface of the filters were counted at 400× with Zeiss microscope. Assays were performed in triplicate. […] To distinguish between chemotactic and chemokinetics effect of Ang1 on U-87 MG, an analysis was performed where similar doses of Ang1 were present above and below the filter. Significant migration was observed only when a concentration gradient of Ang1 was established, a finding typical of factors inducing chemotaxis.

[5] = system: Dok-R; assay: Tie2 association with Dok-R; type: cell-based, human; conditions: stable transfected Tie2 U-251 MG
Source text: Tie2 can also recruit additional signaling molecules that participate in cellular pathways that affect the shape and migratory properties of cells. In this regard, the Tie2-associated docking protein Dok-R can potentiate NCK-dependent endothelial cell migration in response to Ang1 (Master et al., 2001; Jones et al., 2003).

[6] = target: T1, Tie2; assay: Tie2 phosphorylation, immunoprecipitation; type: cell-based; conditions: U-87 MG, 500 ng/ml, 10 min
Procedure: To explore the regulation of Tie2 signaling by Angs in U-87 MG cells, Tie2 was immunoprecipitated from membrane fractions of U-87 MG cells treated with rAng1 (500 ng/ml) for 10 min, and phosphorylation of Tie2 was addressed using anti-phosphotyrosine antibody.

[7] = system: Ras; assay: Ras activity (Ras-GTP); type: cell-based, human; conditions: U-87 MG
Procedure: In addition, the inventors have obtained data regarding the upstream effector of p42/p44 MAPK, Ras, by analyzing Ras activity in Ang1-estimulated U-87 MG cells. Ras activity, which detects active GTP-bound Ras, was performed by immunoprecipitation of Ras-Raf complexes (contains only active Ras), and consequent western blotting detection of Ras-GTP molecule.

[8] = system: ERK1 (p44MAPK) and ERK2 (p42MAPK); assay: ERK1/2 (p42/p44 MAPK) phosphorylation, Western blot; type: cell-based, human
Procedure: HUVEC and U-87 MG cells were mock-, AdCMV- or AdAng-2-Infected. 24 hours later they were overnights serum-starved, and then stimulated with […] for 10 min. Cell lysates were collected and analyzed by Western blotting for expression of phospho- and total p42/p44 MAPK. Ang-1 increased ERK 1/2 phosphorylation what was inhibited by the viral-transduced Ang-2.
The Ang-2/Ang-1/Tie2 system has been studied in endothelial cells, and different pathways have been reported as involved in the cascade signaling; these include phosphotidylinositol […] (PI3-K), focal adhesion kinase, Raf/Ras/mitogen-activated protein kinase (MAPK), and Dok-R/Dok-2/Nck/Pak (Yoon et al., 2003). […] These cascades modulate protein synthesis and/or transcriptional activation. […] To measure MAPK activity, the inventors measured the degree of phosphorylation of two MAPKs, ERK1 (p44MAPK) and ERK2 (p42MAPK).
The Ang-2/Ang1/Tie2 system has been studied in endothelial cells, and different pathways have been reported as involved in the cascade signaling. […] MAPK activity was measured by the degree of phosphorylation of two MAPKs, ERK1 (p44^MAPK) and ERK2 (p42^MAPK).

[9] = system: Akt; assay: Akt phosphorylation; type: cell-based, human; conditions: U-87 MG, 100-500 ng/ml
Source text: Consistant with previous reports, Ang-1/Tie signaling in endothelial cells in vitro involves PI3K/Akt activation (DeBusk et al., 2004; Papapetropoulos et al., 2000).

[10] = system: U-87 MG cells; assay: Glioma cell adhesion assay; type: cell-based, human; conditions: 1 hr
Source text: It was reported that Ang1 promotes adhesion of Tie2+ hematopoietic stem cells to fibronectin and collagen and also promotes the interaction of endothelial cells with surrounding mesenchymal cells and the extracellular matrix (Davis et al., 1996; Suri et al., 1996; Arai et al., 2004). Therefore, the inventors analyzed the effects of Ang1/Tie2 signalling on glioma adhesion. Briefly, 96-well dishes were coated for 2 hr at room temperature (RT) with rAng1 diluted in PBS. Wells were then blocked for 30 min at RT with 0.5% heat-inactivated BSA in PBS (80° C. for 10 min) and washed three times with PBS before adding cells. U-87 MG cells were harvested and resuspended. 30,000 cells were seeded/well, and the plate was incubated at 37° C. for 1 hr. Nonadherent cells were removed and attached cells were fixed in 4% paraformaldehyde and stained with 0.2% crystal violet. Cells were solubilized in DMSO and absorbance of each well was read at 570 nm. […] Similar results were obtained when Tie2− and Tie2+U-251 MG were used. In addition, the possibility of Ang1-induced adhesion has been assessed. For that study, the wells were coated with several ECM and then, U-87 MG cells that were previously stimulated with Ang1 (BSA control), were plated on those wells. […]

## COc1cccc(-c2cc(=O)c3ccccc3o2)c1N [PD98059]
[1]
  P-MAPK expression: effectively inhibited P-MAPK expression

## NLLMAAS ({FAM-Ahx}-NLLMAAS; also: 5(6)-carboxyfluorescein label (site not given here)) [T4]
[2]
  binding to cell membrane by flow cytometry: binds preferentially to the membrane of cells overexpressing Tie2
[3]
  binding of Ang1 and Ang-2 to the Tie2 receptor: completely abolished

B1: rhAng-1: recombinant angiopoietin-1 protein (protein)
chain: SNQRRSPENSGRRYNRIQHGQCAYTFILPEHDGNCRESTTDQYNTNALQRDAPHVEPDFSSQKLQHLEHVMENYTQWLQKLENYIVENMKSEMAQIQQNAVQNHTATMLEIGTSLLSQTAEQTRKLTDVETQVLNQTSRLEIQLLENSLSTYKLEKQLLQQTNEILKIHEKNSLLEHKILEMEGKHKEELDTLKEEKENLQGLVTRQTYIIQELEKQLNRATTNNSVLQKQQLELMDTVHNLVNLCTKEGVLLKGGKREEEKPFRDCADVYQAGFNKSGIYTIYINNMPEPKKVFCNMDVNGGGWTVIQHREDGSLDFQRGWKEYKMGFGNPSGEYWLGNEFIFAITSQRQYMLRIELMDWEGNRAYSQYDRFHIGNEKQNYRLYLKGHTGTAGKQSSLILHGADFSTKDADNDNCMCKCALMLTGGWWFDACGPSNLNGMFYTAGQNHGKLNGIKWHYFKGPSYSLRSTTMMIRPLDF
[4]
  chemotactic migration: significant increase in directed migration
[5]
  Tie2 association with Dok-R: results in Tie2 association with Dok-R protein
[6]
  Tie2 phosphorylation: induced phosphorylation of Tie2
[7]
  Ras activity: Ras activity increases
[8]; HU-VEC-C endothelial cells, 100 ng/ml
  ERK1/2 phosphorylation: increased ERK1/2 phosphorylation
[8]; U-87 MG
  ERK1/2 phosphorylation: increased ERK1/2 phosphorylation
[9]
  Akt phosphorylation: did not modify the pattern of phosphorylation of the Akt molecule
[10]
  adhesion of U-87 cells to Ang1-coated wells: increasing adhesion properties
